Reference: patent US20250179151A1, “SPIKE FURIN CLEAVAGE IS A SARS-COV-2 TARGETING STRATEGY TO BREAK THE CHAIN OF INFECTION CYCLE” (University of Virginia Patent Foundation, priority 2022, published 2025)
“Also recorded” adds a separate entry of the source. Peptide text beside a SMILES is read from it. * marks the point of attachment. Cbz = O=C(OCc1ccccc1)*

Assays:
spike S1/S2 cleavage = format: cell-based, SARS-CoV-2
spike S0 = format: cell-based, SARS-CoV-2
[1] = system: pseudoviral spike S0 and S2; format: cell-based, SARS-CoV-2
furin [2] = molecular target: T1, furin (Homo sapiens, UniProt P09958); format: biochemical; conditions: peptide inserted in rDR5-IgG4-Fc; 10 ng recombinant furin
spike cleavage at S1/S2 = format: cell-based, SARS-CoV-2
293-ACE2 cells = format: cell-based; conditions: spike transfected 293-ACE2 cells, 24 hours
[3] = molecular target: T2, IgG4-Fc tagged rFOLR1 antigen (UniProt P15328 25-233); assay: ELISA, IgG4-Fc tagged rFOLR1 coated, detection with anti-IgG1-Fc HRP
T2 construct: extracellular domain; also called recombinant IgG4-Fc FOLR1

spike S0 and S2 = format: cell-based, SARS-CoV-2
[4] = system: 293-ACE2 and RFP-stable HCC-1806 cells; assay: Syncytia in Spike-EGFP transfected co-culture of 293-ACE2 and HCC-1806 cells; format: cell-based; conditions: co-cultures, 100 μg antibody
furin [5] = molecular target: T1, furin; assay: Furin protease activity assay (fluorogenic substrate); format: biochemical; conditions: particularly at higher doses; compared with farletuzumab-cFuG1
Protocol: (§1) FIGS. 2A-2C. Furin inhibitory function and flexibility of Fc-extended FuG1 peptide strategy. (FIG. 2A) The binding kinetics of immobilized biotinylated furin against indicated farletuzumab-FuG1, farletuzumab-cFuG1, and Farletuzumab-IgG1 were measured using BLI. (FIGS. 2B and 2C) FuG1 and cFuG1 antibodies were tested using a competitive inhibitory furin assay kit, which measures fluorescent signal as an indicator of the protease activity kinetics.
Furin protease activity assay. Different concentrations of farletuzumab-FuGi, farletuzumab-cFuGi (25-250 ng) or furin assay buffer (negative control) were pre-incubated with 25 ng of furin (50 μl, 0.5 ng/μl in furin assay buffer) in a total reaction volume of 100 μl for 10 minutes at room temperature. […] The fluorescence intensity of the reaction mixture was monitored at excitation wavelength of 380 nm and detection of emission at wavelength 460 nm using 96 well microplate reader (BioTek Instruments Inc, USA). […] For kinetic study, fluorescence was measured immediately after adding the protease substrate and data was recorded every 1 minute for 15 min at Ex/Em=380 nm/460 nm.
To confirm furin binding and competing function, farletuzumab-FuG1 and farletuzumab-cFuG1 were expressed in the presence of furin inhibitors. Purified antibodies were analyzed for their Fc-extended peptide binding to biotinylated furin using BLI. […]

furin [6] = molecular target: T1, furin; assay: BLI binding kinetics against immobilized biotinylated furin; conditions: compared to cFuG1
Protocol: as §1
Binding studies by BioLayer Interferometry (BLI). Binding measurements were performed using Bio-Layer Interferometry on FortéBio Red Octet 96 instrument (Pall) as described in Shivange et al., 2018. Biotin-Streptavidin based sensors were employed for the studies. Recombinant Fc linked DR5 variants were biotinylated using EZ-Link Sulfo-NHS—SS-Biotin (Thermo Scientific 21331) following the manufacturer's instructions. Unreacted Sulfo-NHS—SS-Biotin reaction was quenched by 50 mM Tris-Cl pH 7.4 and removed via dialyzing against PBS. For binding analysis biotinylated antigen (1 μg/mL) were immobilized on streptavidin (SA) biosensors (Pall) for 300 sec to ensure saturation. Associate and dissociation reactions were set in 96-well microplates filled with 200 μL of unbiotinylated DR5 agonist for 900 seconds. All interactions were conducted at 37° C. in PBS buffer containing 2 mg/ml BSA. These binding observations were also confirmed by biotinylating the agonist antibodies and probed against unbiotinylated DR5-Fc variants. Kinetic parameters (KON and KOFF) and affinities (KD) were analyzed using Octet data analysis software, version 9.0 (Pall).
To confirm furin binding and competing function, farletuzumab-FuG1 and farletuzumab-cFuG1 were expressed in the presence of furin inhibitors. Purified antibodies were analyzed for their Fc-extended peptide binding to biotinylated furin using BLI. […] The latter indicated a potential higher competitive furin occupancy time of FuG1 peptide with the increased antibody concentration (Hoare et al., 2020).

T1 sequence (P09958 108-794): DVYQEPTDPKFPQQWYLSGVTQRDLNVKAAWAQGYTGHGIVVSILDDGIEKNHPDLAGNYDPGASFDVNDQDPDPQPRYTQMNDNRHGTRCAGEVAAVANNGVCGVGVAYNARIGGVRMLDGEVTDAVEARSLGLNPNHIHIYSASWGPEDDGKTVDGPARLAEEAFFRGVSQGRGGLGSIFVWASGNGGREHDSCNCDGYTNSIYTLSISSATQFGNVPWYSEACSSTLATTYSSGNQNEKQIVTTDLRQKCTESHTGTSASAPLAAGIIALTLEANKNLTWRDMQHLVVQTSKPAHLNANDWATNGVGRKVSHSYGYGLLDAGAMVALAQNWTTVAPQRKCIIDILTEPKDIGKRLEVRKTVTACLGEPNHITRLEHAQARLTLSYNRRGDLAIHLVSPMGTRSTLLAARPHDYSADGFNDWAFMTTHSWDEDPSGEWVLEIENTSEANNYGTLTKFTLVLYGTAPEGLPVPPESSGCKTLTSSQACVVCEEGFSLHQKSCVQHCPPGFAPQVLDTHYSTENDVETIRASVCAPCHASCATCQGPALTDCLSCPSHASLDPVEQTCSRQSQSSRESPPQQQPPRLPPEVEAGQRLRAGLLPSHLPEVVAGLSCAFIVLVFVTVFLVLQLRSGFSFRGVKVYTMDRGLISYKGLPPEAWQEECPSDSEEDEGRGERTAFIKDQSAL
T2 sequence (P15328 25-233 limits assumed): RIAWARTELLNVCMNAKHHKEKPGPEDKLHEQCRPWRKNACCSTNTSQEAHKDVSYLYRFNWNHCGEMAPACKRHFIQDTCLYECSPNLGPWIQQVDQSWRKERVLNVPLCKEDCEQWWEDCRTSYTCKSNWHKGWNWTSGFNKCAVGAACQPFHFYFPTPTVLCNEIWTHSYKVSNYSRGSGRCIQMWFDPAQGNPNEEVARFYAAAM

Molecule: C[C@H]1CCC/C=C/[C@@H]2C[C@H](O)C[C@H]2[C@H](O)/C=C/C(=O)O1 [Bfa, Brefeldin-A]
- spike S1/S2 cleavage (spike S1/S2 cleavage): completely inhibited

Molecule: CC(C)C[C@@H](C=O)NC(=O)[C@H](CC(C)C)NC(=O)[C@H](CC(C)C)NC(=O)OCc1ccccc1 [MG132] (Cbz-Leu-Leu-Leu-aldehyde)
- furin processing of WT and ΔRRAR spike (spike S0): did not interfere
- rescue of spike S0 loss (spike S0): partial rescue of spike S0 loss
- total spike S0 signal (spike S0): at least two-fold higher; also recorded: significantly increased
- pseudoviral S2 fragment generation [1]: remained inhibited
- pseudoviral spike S0 destabilization [1]: rescued spike S0 destabilization

Molecule: EGGGSGRERKARGGCPGS [FuG1 peptide]
- cleavage by recombinant furin in vitro (furin [2]): not cleaved

B1: 6.29-IgG1: ACE-2-RBD neutralizing antibody (Rogers et al., 2020); SEQ ID NOs: 11 and 15 (protein)
light: DIQLTQSPSSLSASVGDRVTITCRASQTASSYLNWYQQKPGKAPNLLIYAASSLQSGVPSRFSGSGSVTDFTLTISSLQPEDFATYYCQQSYSTPPTFGQGTKVDIKRTVAAPSVFIFPPSDEQLKSGTASVVCLLNNFYPREAKVQWKVDNALQSGNSQESVTEQDSKDSTYSLSSTLTLSKADYEKHKVYACEVTHQGLSSPVTKSFNRGEC
heavy: QVQLVQSGSELKKPGASVKVSCKASGYTFATYALNWVRQAPGQGLEWMGWVNTNTGSPTYAQGFTGRFVFSFDTSVSTAYLQIRTLKAEDTAVYYCAVYYYDSGSPGWFDPWGQGTLVTVSSASTKGPSVFPLAPSSKSTSGGTAALGCLVKDYFPEPVTVSWNSGALTSGVHTFPAVLQSSGLYSLSSVVTVPSSSLGTQTYICNVNHKPSNTKVDKKVEPKSCDKTHTCPPCPAPEAAGGPSVFLFPPKPKDTLMISRTPEVTCVVVDVSHEDPEVKFNWYVDGVEVHNAKTKPREEQYNSTYRVVSVLTVLHQDWLNGKEYKCKVSNKALPAPIEKTISKAKGQPREPQVYTLPPSREEMTKNQVSLTCLVKGFYPSDIAVEWESNGQPENNYKTTPPVLDSDGSFFLYSKLTVDKSRWQQGNVFSCSVMHEALHNHYTQKSLSLSLGK
- inhibition of spike cleavage at S1/S2 (spike cleavage at S1/S2): non-inhibitory
- syncytia blockade (293-ACE2 cells): significantly more effective; also recorded: significantly effective

B2: farletuzumab-FuG1 (antibody)
heavy: EVQLVESGGGVVQPGRSLRLSCSASGFTFSGYGLSWVRQAPGKGLEWVAMISSGGSYTYYADSVKGRFAISRDNAKNTLFLQMDSLRPEDTGVYFCARHGDDPAWFAYWGQGTPVTVSSASTKGPSVFPLAPSSKSTSGGTAALGCLVKDYFPEPVTVSWNSGALTSGVHTFPAVLQSSGLYSLSSVVTVPSSSLGTQTYICNVNHKPSNTKVDKKVEPKSCDKTHTCPPCPAPEAAGGPSVFLFPPKPKDTLMISRTPEVTCVVVDVSHEDPEVKFNWYVDGVEVHNAKTKPREEQYNSTYRVVSVLTVLHQDWLNGKEYKCKVSNKALPAPIEKTISKAKGQPREPQVYTLPPSREEMTKNQVSLTCLVKGFYPSDIAVEWESNGQPENNYKTTPPVLDSDGSFFLYSKLTVDKSRWQQGNVFSCSVMHEALHNHYTQKSLSLSLPGKEGGGSGRERKARGGCPGS
light: DIQLTQSPSSLSASVGDRVTITCSVSSSISSNNLHWYQQKPGKAPKPWIYGTSNLASGVPSRFSGSGSGTDYTFTISSLQPEDIATYYCQQWSSYPYMYTFGQGTKVEIKRTVAAPSVFIFPPSDEQLKSGTASVVCLLNNFYPREAKVQWKVDNALQSGNSQESVTEQDSKDSTYSLSSTLTLSKADYEKHKVYACEVTHQGLSSPVTKSFNRGEC
notes: also called Farle-FuG1; Farletuzumab-FuG1 antibody
- binding result [3]: binds

B3: farletuzumab-FuG1: anti-FOLR1 farletuzumab with FuG1 Fc-extended peptide (SEQ ID NO: 44) (antibody)
heavy: EVQLVESGGGVVQPGRSLRLSCSASGFTFSGYGLSWVRQAPGKGLEWVAMISSGGSYTYYADSVKGRFAISRDNAKNTLFLQMDSLRPEDTGVYFCARHGDDPAWFAYWGQGTPVTVSSASTKGPSVFPLAPSSKSTSGGTAALGCLVKDYFPEPVTVSWNSGALTSGVHTFPAVLQSSGLYSLSSVVTVPSSSLGTQTYICNVNHKPSNTKVDKKVEPKSCDKTHTCPPCPAPEAAGGPSVFLFPPKPKDTLMISRTPEVTCVVVDVSHEDPEVKFNWYVDGVEVHNAKTKPREEQYNSTYRVVSVLTVLHQDWLNGKEYKCKVSNKALPAPIEKTISKAKGQPREPQVYTLPPSREEMTKNQVSLTCLVKGFYPSDIAVEWESNGQPENNYKTTPPVLDSDGSFFLYSKLTVDKSRWQQGNVFSCSVMHEALHNHYTQKSLSLSLPGKEGGGSGRERKARGGCPGS
light: DIQLTQSPSSLSASVGDRVTITCSVSSSISSNNLHWYQQKPGKAPKPWIYGTSNLASGVPSRFSGSGSGTDYTFTISSLQPEDIATYYCQQWSSYPYMYTFGQGTKVEIKRTVAAPSVFIFPPSDEQLKSGTASVVCLLNNFYPREAKVQWKVDNALQSGNSQESVTEQDSKDSTYSLSSTLTLSKADYEKHKVYACEVTHQGLSSPVTKSFNRGEC
- S0 and S2 in co-culture lysates (spike S0 and S2): only partially reduced S2 conversion
- syncytia load reduced [4]: ~30%
- inhibition of furin protease activity (furin [5]): significant inhibition
- furin association rate (KON) (furin [6]): lower
- furin binding affinity (KD) (furin [6]): lower
- furin dissociation rate (KOFF), fold reduced (furin [6]): ~10 fold
